Results: patent US20180208678A1 (UNIVERSITY OF CHICAGO, published 2018)
Changes are numbered by the printed parent chain.

B1: Mb(BgaD_S10) (designed binder)
chain: VSSVPTKLEVVAATPTSLLISWDAPAVTVVFYLITYGETGASSWPGYQEFTVPGSKSTATISGLKPGVDYTITVYAQYPWDTGSPISINYRT
B2: Mb(BgaD_L02) (designed binder)
chain: VSSVPTKLEVVAATPTSLLISWDANGWNYVKYYRITYGETGGNSPVQEFTVPGSSSTATISGLKPGVDYTITVYAYEYYSESSSSPISINYRT
B3: Mb(BgaD_S09) (designed binder)
chain: VSSVPTKLEVVAATPTSLLISWDAPAVTVVYYVITYGETGGNSPVQEFTVPGSKSTATISGLKPGVDYTITVYAYSDQVEYYEYFYGSPISINYRT
B4: Mb(BgaD_L23) (designed binder)
chain: VSSVPTKLEVVAATPTSLLISWDAFDGYWYDYVSFYRITYGESGGNSPVQEFTVPSSSSTATISGLKPGVDYTITVYAYSHSQQQYLSPNSINYRT
B5: Mb(BgaD_L19) (designed binder)
chain: B4 chain with F35Y, S43T, N90I
B6: Mb(BgaD_L14) (designed binder)
chain: VSSVPTKLEVVAATPTSLLISWDASSYYGVVSYYRITYGETGGNSPVQEFTVPGYSSTATISGLKPGVDYTITVYASYYYWYTSYTKSPISINYRT
B7: Mb(BgaD_S06) (designed binder)
chain: B1 chain with L33V, S42A, S43V, Y47H, Y78G, P79G, W80R, D81W, T82K, G83S
B8: Mb(BgaD_S12) (designed binder)
chain: B1 chain with L33I, S42A, S43V, Y47H, Q77V, Y78G, T82Y, G83Y
B9: 1Mb39 S (designed binder)
chain: VSSVPTKLEVVAATPTSLLISWDAPAVTVDFYLITYGETGGPSWPQAFAVPGSKSTATISGLKPGVDYTITVYASSSSRISSSSSKPISINYRT
B10: Mb(BgaD_S11) (designed binder)
chain: VSSVPTKLEVVAATPTSLLISWDAPAVTVVLYVITYGETGPGHSAWPQAFTVPGSKSTATISGLKPGVDYTITVYAYWDWDSHRYSPISINYRT
B11: Mb(BgaD_L01) (designed binder)
chain: VSSVPTKLEVVAATPTSLLISWDAMDHTPYVYYYRITYGETGGNSPVQEFTVPGYYSTATISGLKPGVDYTITVYAGDLSWNFDFYSPISINYRT
B12: Mb(BgaD_S08) (designed binder)
chain: VSSVPTKLEVVAATPTSLLISWDAPAVTVDLYVITYGETGGSSWPQAFTVPGSKSTATISGLKPGVDYTITVYAHSWDHSYSPISINYRT
B13: Mb(BgaD_L04) (designed binder)
chain: VSSVPTKLEVVAATPTSLLISWDAYEHWSGVYYYRITYGETGGNSPVQEFTVPGSSSTATISGLKPGVDYTITVYAYSYSYASMYSPISINYRT
B14: Mb(BgaD_S13) (designed binder)
chain: VSSVPTKLEVVAATPTSLLISWDAPAVTVVFYVITYGETGVHWPGYQKFTVPGSKSTATISGLKPGVDYTITVYAQFPWYMGSPISINYRT
B15: Mb(BgaD_L03) (designed binder)
chain: VSSVPTKLEVVAATPTSLLISWDAGDYWVYYYRITYGETGGNSPVQEFTVPGYSSTATISGLKPGVDYTITVYAGDLSFNTYYYSPISINYRT
B16: Mb(BgaD_S07) (designed binder)
chain: VSSVPTKLEVVAATPTSLLISWDAPAVTVDLYLITYGETGFSYGFPQAFTVPGSKSTATISGLKPGVDYTITVYASTVDGHSSPISINYRT
B17: Mb(BgaD_L05) (designed binder)
chain: VSSVPTKLEVVAATPTSLLISWDAYKSLGGVDYYRITYGETGGNSPVQEFTVPGSSSTATISGLKPGVDYTITVYAGYLWYPYGEWSPISINYRT
B18: Mb(BgaD_L18) (designed binder)
chain: VSSVPTKLEVVAATPTSLLISWDAESWYWPYYVSYYRITYGETGGNSPVQEFTVPSSSSTATISGLKPGVDYTITVYAFEHHEQRYYSPISINYRT
B19: Mb(BgaD_L24) (designed binder)
chain: B4 chain with T14A, S17T, F35Y, S43T, T62I, S80H, N90I
B20: Mb(BgaD_L22) (designed binder)
chain: B4 chain with F35Y, S43T, E51V, Q84L, N90I
B21: Mb(CRL_L18) (designed binder)
chain: VSSVPTKLEVVAATPTSLLISWDAMQYSEYDVTYYRITYGETGGNSPVQEFTVPGSSSTATISGLKPGVDYTITVYAVWQYMHYMHSYSPISINYRT
notes: 109 is Mb(S19)); also called Mb(L18)
B22: Mb(CRL_L24) (designed binder)
chain: VSSVPTKLEVVAATPTSLLISWDASSSSVSYYRITYGETGGNSPVQEFTVPGSSSTATISGLKPGVDYTITVYAFGHYYGSWVWSPISINYRT
notes: also called Mb(L24)
B23: Mb(CRL_L23) (designed binder)
chain: B22 chain with V83A
notes: Mb(L23) and Mb(L24) differ by one residue and could be 116/117 in either order; also called Mb(L23)

target: BgaD-D, smallest isozyme of the β-galactosidase from B. circulans ATCC 31382 (Biolacta) (Bacillus circulans ATCC 31382); assay: bead assay, purified proteins, target given as BgaD-D/WT, titrated 0-1000 nM shown, 1:1 fit [panel a]

| Kd [nM] | Binder |
| --- | --- |
| 13 | B1 |
| 9.9 | B2 |
| 171 | B3 |
| 25 | B4 |
| 37 | B5 |

target: BgaD-D, smallest isozyme of the β-galactosidase from B. circulans ATCC 31382 (Biolacta) (Bacillus circulans ATCC 31382); assay: Kd table; yeast-surface display (paragraph 202 repeats it as 12±3 nM)

| Kd [nM] | Binder |
| --- | --- |
| 12 | B4 |

target: BgaD-D active site mutant E447R (Bacillus circulans ATCC 31382); assay: bead assay, purified proteins, target given as BgaD-D/ER, titrated 0-1000 nM shown, 1:1 fit [panel a]

| Kd [nM] | Binder |
| --- | --- |
| 16 | B1 |
| 11 | B2 |
| 157 | B3 |
| 227 | B4 |
| 224 | B5 |

target: BgaD-D active site mutant E447K (Bacillus circulans ATCC 31382); assay: bead assay, purified proteins, target given as BgaD-D/EK, titrated 0-1000 nM shown, 1:1 fit [panel a]

| Kd [nM] | Binder |
| --- | --- |
| 12 | B1 |
| 11 | B2 |
| 178 | B3 |
| 156 | B4 |
| 173 | B5 |

target: BgaD-D, smallest isozyme of the β-galactosidase from B. circulans ATCC 31382 (Biolacta) (Bacillus circulans ATCC 31382); assay: bead assay with purified proteins, biotinylated monobody on streptavidin beads (FIG. 3B)

| Kd [nM] | Binder |
| --- | --- |
| 31 | B6 |

target: BgaD-D, smallest isozyme of the β-galactosidase from B. circulans ATCC 31382 (Biolacta) (Bacillus circulans ATCC 31382); assay: bead assay, purified proteins: biotinylated monobody on streptavidin-coated beads, BgaD-D titrated (0-1000 nM shown), flow cytometry, 1:1 fit [panel b]

| Kd [nM] | Binder |
| --- | --- |
| 13 | B1 |
| 9.9 | B2 |
| 171 | B3 |
| 25 | B4 |
| 37 | B5 |

target: BgaD-D, smallest isozyme of the β-galactosidase from B. circulans ATCC 31382 (Biolacta) (Bacillus circulans ATCC 31382); assay: Kd table; method not given

| Kd [nM] | Binder |
| --- | --- |
| 15 | B1 |
| 24 | B7 |
| 18 | B8 |
| 37 | B6 |
| 476 | B9 |
| 246 | B10 |
| 163 | B11 |
| 214 | B12 |
| 137 | B13 |
| 5.7 | B2 |
| 50 | B14 |
| 76 | B15 |
| 488 | B16 |
| 515 | B17 |
| 147 | B18 |
| 184 | B3 |
| 11 | B19 |
| 33 | B20 |

target: BgaD-D, smallest isozyme of the β-galactosidase from B. circulans ATCC 31382 (Biolacta) (Bacillus circulans ATCC 31382); assay: KD (nM) to BgaD-D; assay not given; the values equal those of the bead assay with purified proteins in FIG. 3B [panel c]

| Kd [nM] | Binder |
| --- | --- |
| 13 | B1 |
| 9.9 | B2 |
| 171 | B3 |
| 25 | B4 |

target: T1, Candida rugosa lipase 1 (CRL1) (Candida rugosa, UniProt P20261 16-549, biotinylated with NHS-LC-biotin, about 2 biotin per CRL1 molecule (binding assays)); assay: cell-based or functional assay

| CRL1 activity toward C8 triacylglyceride (fold reduction relative to CRL1 alone) [fold] | CRL1 activity toward C10 triacylglyceride (fold reduction relative to CRL1 alone) [fold] | CRL1 activity toward C12 triacylglyceride (fold reduction relative to CRL1 alone) [fold] | Binder |
| --- | --- | --- | --- |
| 11 | 102 | 4.5 | B21 |

target: BgaD-D active site mutant E447Q (Bacillus circulans ATCC 31382); assay: bead assay, purified proteins, target given as BgaD-D/EQ, titrated 0-1000 nM shown, 1:1 fit [panel a]

| Kd [nM] | Binder |
| --- | --- |
| 16 | B1 |
| 12 | B2 |
| 239 | B3 |
| 46 | B4 |
| 72 | B5 |

target: T1, Candida rugosa lipase 1 (CRL1); assay: yeast-surface display of the monobody, CRL1 titrated, flow cytometry, 1:1 fit [panel a]
Method: Affinity of monobodies to CRL1 was determined using yeast-surface display, as described previously. Yeast cells displaying a monobody were incubated with varying concentrations of CRL1, washed with the buffer and stained with appropriate fluorescently labeled secondary detection reagents, prior to analysis on a flow cytometer (Guava EasyCyte 6/L, Millipore). KD values were determined from plots of the mean fluorescent intensity against CRL1 concentration by fitting the 1:1 binding model using SigmaPlot software (Systat Software).

| Kd [nM] | Binder |
| --- | --- |
| 9.3 | B22 |
| 11 | B23 |
| 54 | B21 |

target: BgaD-D, smallest isozyme of the β-galactosidase from B. circulans ATCC 31382 (Biolacta) (Bacillus circulans ATCC 31382); assay: Kd table; yeast-surface display (paragraph 202 repeats it as 600±170 nM)

| Kd [nM] | Binder |
| --- | --- |
| 598 | B5 |

target: BgaD-D, smallest isozyme of the β-galactosidase from B. circulans ATCC 31382 (Biolacta) (Bacillus circulans ATCC 31382); assay: cell-based or functional assay

| production of DP4 by BgaD-D (fold reduction) [fold] | production of DP5+ by BgaD-D (fold reduction) [fold] | Binder |
| --- | --- | --- |
| 4.5 | 30 | B4 |
